# B1: Escherichia coli mechanosensitive channel MscS, His-tagged (natural protein, UniProt P0C0S1 1-286, looked up)
# chain: MEDLNVVDSINGAGSWLVANQALLLSYAVNIVAALAIIIVGLIIARMISNAVNRLMISRKIDATVADFLSALVRYGIIAFTLIAALGRVGVQTASVIAVLGAAGLAVGLALQGSLSNLAAGVLLVMFRPFRAGEYVDLGGVAGTVLSVQIFSTTMRTADGKIIVIPNGKIIAGNIINFSREPVRRNEFIIGVAYDSDIDQVKQILTNIIQSEDRILKDREMTVRLNELGASSINFVVRVWSNSGDLQNVYWDVLERIKREFDAAGISFPYPQMDVNFKRVKEDKAA
# notes: full-length E. coli MscS cloned into pET-28b(+); Homo-heptamer; source: E. coli BL21 (DE3), purified (Ni-NTA, SEC)
# B2: Escherichia coli MsbA (ABC transporter, lipid transporter), His-tagged (natural protein)
# chain: MHNDKDLSTWQTFRRLWPTIAPFKAGLIVAGVALILNAASDTFMLSLLKPLLDDGFGKTDRSVLVWMPLVVIGLMILRGITSYVSSYCISWVSGKVVMTMRRRLFGHMMGMPVSFFDKQSTGTLLSRITYDSEQVASSSSGALITVVREGASIIGLFIMMFYYSWQLSIILIVLAPIVSIAIRVVSKRFRNISKNMQNTMGQVTTSAEQMLKGHKEVLIFGGQEVETKRFDKVSNRMRLQGMKMVSASSISDPIIQLIASLALAFVLYAASFPSVMDSLTAGTITVVFSSMIALMRPLKSLTNVNAQFQRGMAACQTLFTILDSEQEKDEGKRVIERATGDVEFRNVTFTYPGRDVPALRNINLKIPAGKTVALVGRSGSGKSTIASLITRFYDIDEGEILMDGHDLREYTLASLRNQVALVSQNVHLFNDTVANNIAYARTEQYSREQIEEAARMAYAMDFINKMDNGLDTVIGENGVLLSGGQRQRIAIARALLRDSPILILDEATSALDTESERAIQAALDELQKNRTSLVIAHRLSTIEKADEIVVVEDGVIVERGTHNDLLEHRGVYAQLHKMQFGQ
# notes: MsbA, ABC transporter of Escherichia coli; Nucleotide-free; also called His6-MsbA; source: E. coli C43, purified (DDM, Ni-NTA, SEC)
# How the values were obtained:
# [1] = target: Rhodobacter sphaeroides dimeric RC–LH1–PufX complex (521 kDa) (Rhodobacter sphaeroides) (UniProt P0C0Y7); assay: negative-stain electron microscopy; SEC peak fractions of purified RC complexes in peptidiscs, 0.7% uranyl formate, 100 class averages by K-means classification
# [2] = target: the molecule itself; assay: cryo-EM structure; single-particle cryo-EM of His-tagged membrane protein reconstituted on Ni beads into peptidiscs and purified by SEC; vitrified; Titan Krios 300 kV, K2 Summit; RELION-3 with C2 (MsbA) or C7 (MscS) symmetry imposed, also processed without symmetry
Molecule,stoichiometry N [1],stoichiometry N [2]
Rhodobacter sphaeroides dimeric RC–LH1–PufX complex (521 kDa) (from UniProt P0C0Y7 1-260; P13402 1-82),2,
B1,,7
B2,,2

# Reference: paper PMC7053995, “New approach for membrane protein reconstitution into peptidiscs and basis for their adaptability to different proteins” (eLife, 2020)
